Experimental data taken from the supplement of paper PMC10567573.
± gives the standard deviation.

Assay: protein stability index of a GFP-peptide fusion (GPS, HEK-293T) (PSI 1-6); higher = more stable
Conditions: c terminus: a fixed tail appended
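Further: 24-mer peptide tiles fused after GFP, lentivirally expressed, FACS-sorted into six equal bins by GFP/DsRed ratio, decoded by Illumina sequencing, PSI is the read-weighted mean bin number.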

Row | Sequence | protein stability index (treatment: DMSO) | protein stability index (treatment: MLN4924 1 uM, 8 h)
1 | HENAVQGSAVEVQTYQPPWKALSE [ISL2] | 4.15 ± 0.23 | 4.02 ± 0.17
2 | KKVSEGPPLRLWRSVIEVPAVPEE [DLC1] | 3.37 ± 0.42 | 3.91 ± 0.46
3 | RKAITEAANAARHVAPEIRELLTQ [PWWP2B] | 4.06 ± 0.29 | 4.05 ± 0.079
4 | RMGATMAAINSIYSNTDANILFYV [GLT8D2] | 2.63 ± 0.59 | 3.14 ± 1.5
5 | HRIWMYNCHIGGSFSEETEKKFEH [LOXL2] | 2.42 ± 0.21 | 2.62 ± 0.34
6 | GRYVKENCKPLKSYMLQDSLEHVQ [CLK3] | 3.1 ± 0.23 | 3.08 ± 0.48
7 | PGVQAPEDLEWERYRGRGSEEYRA [CHGB] | 4.8 ± 0.17 | 5.18 ± 0.63
8 | LWKRMDKLEAEKRILQEKLDQPVS [CCDC6] | 3.81 ± 0.2 | 3.94 ± 0.35
9 | WNNVGLLGGRALMNCLPSNRTLWR [LRRC45] | 2.23 ± 0.31 | 2.24 ± 0.45
10 | LIYMVTIMGNLLIIVTIMASQSLG [OR4A15] | 3.18 ± 0.43 | 3.1 ± 0.29
11 | AAFPNLANLSRTQLLHLGLTQGLI [KLHDC10] | 2.58 ± 0.3 | 2.27 ± 0.2
12 | PENGEIKPASKPAGSSHTPSSQSS [ELOA2] | 5.43 ± 0.25 | 5.62 ± 0.067
13 | LPTDAVDCMSRELVSLTSRNPDQR [FBXO34] | 4.85 ± 0.25 | 4.9 ± 0.17
14 | EETRVWHRRDGKWQNVHFHCSGAP [CAMK2B] | 3.1 ± 0.15 | 3.11 ± 0.32
15 | HSFQSSHRPSLNSVSLQINCQSVA [DLC1] | 2.95 ± 0.29 | 2.98 ± 0.28
16 | TVDGLHFNSTYNARVKAFNKTGVS [TRIM9] | 3.17 ± 0.19 | 3.46 ± 0.086

Row | Sequence | protein stability index (treatment: DMSO) | protein stability index (treatment: MLN4924 1 uM, 8 h)
17 | QGIFVEKYDPTIEDSYRKQVEVDA [RAP1B] | 4.72 ± 0.11 | 4.44 ± 0.12
18 | DVLLTLKHTVKEHECKLTQEILEL [IQUB] | 2.12 ± 0.2 | 1.96 ± 0.47
19 | RLNLTNTKQNFFSQTPILQALQHV [INTS3] | 2.23 ± 0.092 | 2.5 ± 0.17
20 | SVTDVTTSSLRLNWEAPPGAFDSF [TNXB] | 3.54 ± 0.2 | 3.35 ± 0.16
21 | YPALREKSKKYSDVEVPASVTGYS [ADD1] | 4.16 ± 0.2 | 4.28 ± 0.25
22 | EGDLPQMEVGSGSRELSLRPSRSG [EID1] | 5.07 ± 0.31 | 5.36 ± 0.35
23 | GGAICGGPDHRLRLWRLFQTLDVN [SLC25A25] | 2.33 ± 0.27 | 2.48 ± 0.42
24 | PENLLLASKCKGAAVKLADFGLAI [CAMK2B] | 2.33 ± 0.31 | 2.56 ± 0.44
25 | QKHYVYGPLPQSFDKEWVAKQTKR [COX4I1] | 3.55 ± 0.41 | 3.7 ± 0.28
26 | KGPGAPQYPAGTQGEQLEVPERLL [SPSB2] | 4.93 ± 0.15 | 4.72 ± 0.26
27 | ALSDAEFEGEGDYEEGMYADWWQE [P3H4] | 4.97 ± 0.23 | 5.15 ± 0.17
28 | YHSPELTTPPGHGTLDNSKSMKPY [NEUROD6] | 2.87 ± 0.65 | 3.7 ± 0.67
29 | STSFRVYIMAFDIKSEDMLKILKP [FBXO33] | 2.14 ± 0.59 | 3.02 ± 0.51
30 | RHSNVVILTTSNITEKIDVAFVDR [TRIP13] | 2.34 ± 0.29 | 2.14 ± 0.16
31 | PAFIIVKLSPLRDRLVVTECQLTH [ZSWIM9] | 3.33 ± 0.57 | 3.02 ± 0.54
32 | QSGFEMLKDVKSTLEKCEKVKTME [TRIM39] | 5.11 ± 0.2 | 4.86 ± 0.2
